The text below walks through data of patent US20070185311A1 (EPIX MEDICAL INC A DELAWARE, published 2007).

Assay [1] has as its target DD(E) fragment of fibrin. In words: affinity of optical contrast agent to fibrin DD(E) fragment.
In assay [2] the target is DD(E) fragment of fibrin. Briefly: affinity of fluorophore-labelled peptide; target taken as fibrin DD(E) fragment.
Assay [3] has as its target T1, DD(E) fragment of fibrin.
T1 chain 1: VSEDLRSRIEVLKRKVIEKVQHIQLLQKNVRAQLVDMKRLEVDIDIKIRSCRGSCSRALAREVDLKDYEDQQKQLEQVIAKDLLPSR
T1 chain 2: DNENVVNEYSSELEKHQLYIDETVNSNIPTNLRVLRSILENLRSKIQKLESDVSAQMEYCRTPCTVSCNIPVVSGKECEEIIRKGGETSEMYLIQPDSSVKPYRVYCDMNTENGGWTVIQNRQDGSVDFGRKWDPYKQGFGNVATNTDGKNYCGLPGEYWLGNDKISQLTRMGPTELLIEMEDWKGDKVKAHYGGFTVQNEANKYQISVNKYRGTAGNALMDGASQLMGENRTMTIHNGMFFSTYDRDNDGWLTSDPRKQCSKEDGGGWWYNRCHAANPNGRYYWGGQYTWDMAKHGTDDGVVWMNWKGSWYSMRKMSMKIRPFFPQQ
T1 chain 3: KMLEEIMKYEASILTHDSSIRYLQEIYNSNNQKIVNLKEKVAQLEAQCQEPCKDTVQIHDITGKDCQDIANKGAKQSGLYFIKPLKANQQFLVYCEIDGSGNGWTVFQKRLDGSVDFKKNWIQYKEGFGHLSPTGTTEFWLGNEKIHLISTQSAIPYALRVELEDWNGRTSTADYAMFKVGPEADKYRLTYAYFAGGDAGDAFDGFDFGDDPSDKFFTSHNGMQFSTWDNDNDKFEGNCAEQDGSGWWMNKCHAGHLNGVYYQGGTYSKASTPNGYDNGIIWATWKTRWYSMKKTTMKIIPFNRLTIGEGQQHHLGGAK
T1 chain 4: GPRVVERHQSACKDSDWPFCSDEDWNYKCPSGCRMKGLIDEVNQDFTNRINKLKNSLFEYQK
T1 chain 5: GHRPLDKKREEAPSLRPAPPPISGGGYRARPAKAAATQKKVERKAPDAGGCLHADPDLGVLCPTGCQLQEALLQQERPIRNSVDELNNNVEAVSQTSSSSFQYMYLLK
T1 chain 6: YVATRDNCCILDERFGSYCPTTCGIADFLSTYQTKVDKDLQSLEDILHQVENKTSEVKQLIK
In words: affinity to DD(E) fragment of fibrin.

Another assay deals with fibrin. In words: Fibrin Affinity; method not stated.
Assay [4] has as its target DD(E) fragment of fibrin. In words: affinity of the unlabelled peptide; target taken as fibrin DD(E) fragment.
The target in assay [5] is T1, DD(E) fragment of fibrin. Briefly: affinity of optical contrast agent to fibrin DD(E) fragment.
The target of assay [6] is T1, DD(E) fragment of fibrin. In words: affinity to DD(E) fragment of fibrin.
Assay [7] has as its target DD(E) fragment of fibrin. Briefly: affinity to soluble fibrin DD(E) fragment.
Assay [8] has as its target DD(E) fragment of fibrin. Briefly: affinity to DD(E) fragment of fibrin. This is another data set of the same source.

Starred links: 1 amine or outer side, 2 acyl side, 3 side chain; linkers in the order of their positions; H or OH if unused. Positions of bridges follow the written chain, without caps; N, C: chain ends. Non-standard residues stand in square brackets, D forms with d. No end group written: not given here. 4‑methoxycoumarin = 4-Methoxycoumarin, an N-terminal optical probe label; Phe(4-OMe) = COc1ccc(C[C@H](N[*:1])C(=O)[*:2])cc1; Ser(Bzl) = O=C([C@H](COCc1ccccc1)N[*:1])[*:2]; Tyr(3-Cl) = N[C@@H](Cc1ccc(O)c(Cl)c1)C(=O)O; Bip = N[C@@H](Cc1ccc(-c2ccccc2)cc1)C(=O)O; Tyr(3-I) = N[C@@H](Cc1ccc(O)c(I)c1)C(=O)O; 2Nal = N[C@@H](Cc1ccc2ccccc2c1)C(=O)O; Hyp = O=C(O)[C@@H]1C[C@@H](O)CN1; Cha = N[C@@H](CC1CCCCC1)C(=O)O; Inp = O=C(O)C1CCNCC1; Ahx = NCCCCCC(=O)O; βAla = NCCC(=O)O

One may read the Kd as a measure of binding affinity in units of concentration. Higher therefore signals weaker binding. In general, Ki refers to the equilibrium dissociation constant of an inhibitor or competing ligand from its target. The low end stands for a stronger hold on the target, the high end for a looser hold on the target.

For “Structure J: Fluor-Q-W-E-C-P-Y-G-L-C-W-I-Q (peptide)”, the Kd is 55 nM in the assay with DD(E) fragment of fibrin [1] and 60 nM with DD(E) fragment of fibrin [2]. As to [Ser(Bzl)]HCPYDLCHIL (disulfide 3-8 (inferred)) [S(Bzl)-H-C-P-Y-D-L-C-H-I-L], the Kd with DD(E) fragment of fibrin [3] was no more than 400 nM. On to QWECPYGLCWIQ […], for which, in the assay with fibrin, the Ki was 4700 nM. In the assay with DD(E) fragment of fibrin [4], this molecule had a Kd of 3000 nM. H[dE]C[Hyp][Tyr(3-Cl)]GLCWIQ (disulfide 3-8 (inferred)) [H-(D-E)-C-Hyp-Y(3-Cl)-G-L-C-W-I-Q] registered a Kd in the assay with DD(E) fragment of fibrin [3] of no more than 200 nM.

Regarding S[dE]C[Hyp][Tyr(3-Cl)]GLCWIQ (disulfide 3-8 (inferred)) [S-(D-E)-C-Hyp-Y(3-Cl)-G-L-C-W-I-Q], the Kd in the assay with DD(E) fragment of fibrin [3] is no more than 200 nM. As to FHC[Hyp][Tyr(3-Cl)][2Nal]LCHIL (disulfide 3-8 (inferred)) [F-H-C-Hyp-Y(3-Cl)-(2-Nal)-L-C-H-I-L], the Kd with DD(E) fragment of fibrin [3] was no more than 500 nM. In the assay with DD(E) fragment of fibrin [2], tetramethylrhodamine-QWECPYGLCWIQ (cysteine pairing not given here) [Compound L: tetramethylrhodamine derivative of …] showed a Kd of 2000 nM. In the assay with DD(E) fragment of fibrin [2], {4‑methoxycoumarin}-QWECPYGLCWIQ (cysteine pairing not given here) [Compound N: 4-methoxycoumarin derivative of …] yielded a Kd of 200 nM. In the assay with DD(E) fragment of fibrin [1], fluorescein-[Ahx]FHC[Hyp][Tyr(3-I)]DLCHI (disulfide 4-9 (inferred)) [Structure B: Fluor-Ahx-F-H-C-Hyp-Y(3-I)-D-L-C-H-I] returned a Kd of 99 nM.

In turn, fluorescein-KFHC[Hyp][Tyr(3-I)]DLCHI (disulfide 4-9 (inferred)) [Structure F: Fluor-K-F-H-C-Hyp-Y(3-I)-D-L-C-H-I] gave a Kd with DD(E) fragment of fibrin [5] of 212 nM. WEC[Hyp][Tyr(3-Cl)]GLCYIQ (disulfide 3-8 (inferred)) [W-E-C-Hyp-Y(3-Cl)-G-L-C-Y-I-Q]: the Kd with DD(E) fragment of fibrin [3] was no more than 300 nM. Molecule fluorescein-[βAla]FHC[Hyp][Tyr(3-I)]DLCHI (disulfide 4-9 (inferred)) [Structure A: Fluor-beta-A-F-H-C-Hyp-Y(3-I)-D-L-C-H-I] returned a Kd with DD(E) fragment of fibrin [1] of 136 nM.

Consider FHC[Hyp][Tyr(3-Cl)]FLCHIL (disulfide 3-8 (inferred)) [F-H-C-Hyp-Y(3-Cl)-F-L-C-H-I-L], for which, in the assay with DD(E) fragment of fibrin [3], the Kd was no more than 500 nM. [Cha]PCDYYGTC[Bip]D (cysteine pairing not given here) [Cha-P-C-D-Y-Y-G-T-C-Bip-D] displayed a Kd with DD(E) fragment of fibrin [6] of no more than 10000 nM. In the assay with DD(E) fragment of fibrin [3], YEC[Hyp][Tyr(3-Cl)]GLCYIQ (disulfide 3-8 (inferred)) [Y-E-C-Hyp-Y(3-Cl)-G-L-C-Y-I-Q] displayed a Kd of no more than 200 nM. Take WEC[Hyp][Tyr(3-Cl)]GLCHIQ (disulfide 3-8 (inferred)) [W-E-C-Hyp-Y(3-Cl)-G-L-C-H-I-Q]: the Kd with DD(E) fragment of fibrin [3] was no more than 200 nM. Regarding [Phe(4-OMe)]WC[Hyp][Tyr(3-I)]DLCHI (disulfide 3-8 (inferred)) [F(4-OMe)-W-C-Hyp-Y(3-I)-D-L-C-H-I], the Kd with DD(E) fragment of fibrin [3] is no more than 500 nM.

B1: Compound 32 (peptide)
peptide: LPCDYYGTCXD
modifications: not fully specified; Bip at 10; cyclized with thallium trifluoroacetate; C-terminus as -CO-NHCH2C6H4CH2NH2; Synthon #2 (bb(CO)DTPA chelates, Gd) coupled to the N- and C-terminal amines
Take B1: the Kd in the assay with DD(E) fragment of fibrin [7] was found to be 4700 nM. Regarding HEC[Hyp][Tyr(3-Cl)]GLCHIQ (disulfide 3-8 (inferred)) [H-E-C-Hyp-Y(3-Cl)-G-L-C-H-I-Q], the Kd with DD(E) fragment of fibrin [3] is no more than 400 nM.

With LPCDYYGTCLD (not fully specified; cysteine pairing not given here) [L-P-C-D-Y-Y-G-T-C-L-D], in the assay with DD(E) fragment of fibrin [6], the Kd is no more than 10000 nM. Take fluorescein-KWFHC[Hyp][Tyr(3-I)]DLCHI (disulfide 5-10 (inferred)) [Structure H: Fluor-K-W-F-H-C-Hyp-Y(3-I)-D-L-C-H-I]: the Kd with DD(E) fragment of fibrin [5] was 119 nM. On to FHC[Hyp][Tyr(3-Cl)]GLCHIL (disulfide 3-8 (inferred)) [F-H-C-Hyp-Y(3-Cl)-G-L-C-H-I-L], for which the Kd in the assay with DD(E) fragment of fibrin [3] was no more than 400 nM. In the assay with DD(E) fragment of fibrin [8], LPCDYYGTC[MeL][Inp] (cysteine pairing not given here) [L-P-C-D-Y-Y-G-T-C-MeL-Inp] showed a Kd of less than 10000 nM. In the assay with DD(E) fragment of fibrin [5], fluorescein-[Ahx]WFHC[Hyp][Tyr(3-I)]DLCHI (disulfide 5-10 (inferred)) [Structure D: Fluor-Ahx-W-F-H-C-Hyp-Y(3-I)-D-L-C-H-I] had a Kd of 61 nM. fluorescein-WFHCPYDLCHIL (disulfide 4-9 (inferred)) [Structure K: Fluor-W-F-H-C-P-Y-D-L-C-H-I-L] returned a Kd with DD(E) fragment of fibrin [5] of 60 nM. Molecule T[dE]C[Hyp][Tyr(3-Cl)]GLCWIQ (disulfide 3-8 (inferred)) [T-(D-E)-C-Hyp-Y(3-Cl)-G-L-C-W-I-Q] gave a Kd in the assay with DD(E) fragment of fibrin [3] of no more than 200 nM. Take fluorescein-[Ahx]GFHC[Hyp][Tyr(3-I)]DLCHI (disulfide 5-10 (inferred)) [Structure C: Fluor-Ahx-G-F-H-C-Hyp-Y(3-I)-D-L-C-H-I]: in the assay with DD(E) fragment of fibrin [5], the Kd was 97 nM.

With WEC[Hyp][Tyr(3-Cl)]GLCFIQ (disulfide 3-8 (inferred)) [W-E-C-Hyp-Y(3-Cl)-G-L-C-F-I-Q], in the assay with DD(E) fragment of fibrin [3], the Kd was no more than 200 nM. In the case of fluorescein-[Ahx]GGFHC[Hyp][Tyr(3-I)]DLCHI (disulfide 6-11 (inferred)) [Structure E: Fluor-Ahx-G-G-F-H-C-Hyp-Y(3-I)-D-L-C-H-I], in the assay with DD(E) fragment of fibrin [5], the Kd worked out at 90 nM.
